We go through one protein from article PMC8692152, “Cellular Id1 inhibits hepatitis B virus transcription by interacting with the novel covalently closed circular DNA-binding protein E2F4” (International Journal of Biological Sciences, 2022).

This data set concerns the molecule itself. The experiment in a line: SEC; Superdex 75, 50 mM Tris-HCl pH 8.0, 300 mM NaCl; calibrated with molecular mass standards. Background: In gel filtration, larger molecules generally elute earlier.

B1: E2F4_(1-88) (domain or fragment)
chain: not shown
notes: The section on ITC sample preparation describes an E2F4_(1-88) protein purified on a GST column and cut with 3C protease; also called pET28-E2F4_(1-88)
What is called stoichiometry N is a count of units in the complex or per binding partner. With B1, the “stoichiometry N” value is 2.
